Measured values reported in US20190106460A1 (published 2019).
Starred links: 1 amine or outer side, 2 acyl side, 3 side chain; linkers in the order of their positions; H or OH if unused. Non-standard residues stand in square brackets, D forms with d. No end group written: not given here. *: point of attachment. Tyr(Me) = O-methyl-L-tyrosine, COc1ccc(C[C@H](N[*:1])C(=O)[*:2])cc1; Phe(4-NO2) = N[C@@H](Cc1ccc([N+](=O)[O-])cc1)C(=O)O; 2,4,6‑trimethylbenzoyl = Cc1cc(C)c(C(=O)*)c(C)c1; Benzenesulfonyl(4-OMe) = COc1ccc(S(=O)(=O)*)cc1; Benzoyl(4-tBu) = CC(C)(C)c1ccc(C(=O)*)cc1; Phe(3-F) = N[C@@H](Cc1cccc(F)c1)C(=O)O; Phe(4-F) = N[C@@H](Cc1ccc(F)cc1)C(=O)O; 1Nal = N[C@@H](Cc1cccc2ccccc12)C(=O)O; Phe(2-F) = N[C@@H](Cc1ccccc1F)C(=O)O; Maleoyl = O=C(/C=C\C(=O)[*:2])[*:1]; Benzoyl(4-Br) = O=C(c1ccc(Br)cc1)*; 2Naphthoyl = O=C(c1ccc2ccccc2c1)*; Benzoyl(4-Me) = Cc1ccc(C(=O)*)cc1; pS = N[C@@H](COP(=O)(O)O)C(=O)O; Suc = O=C(CCC(=O)[*:2])[*:1]; Hexanoyl = CCCCCC(=O)*; Bz = O=C(c1ccccc1)*; Ahx = NCCCCCC(=O)O

Assays:
[1] = target: T1, Beta Transducin repeat-containing protein (βTrCP), tag cleaved and complexed with Skp1 (UniProt Q9Y297 175-605; P63208 1-163); assay: FP competition dose-response, fluorescein-IkB peptide tracer on βTrCP/Skp1 (average Ki; assay not given)
T1 construct: the FP protocol says that Ki is determined from FP dose-response curves; also called βTrCP/Skp1

Skp2 = Skp2 (UniProt Q13309 1-424, limits assumed); assay: cell-based or functional assay
Fbw7 = Fbw7 (UniProt Q969H0 263-707, limits assumed); assay: cell-based or functional assay
Fbw7, sequence (Q969H0 263-707 limits assumed): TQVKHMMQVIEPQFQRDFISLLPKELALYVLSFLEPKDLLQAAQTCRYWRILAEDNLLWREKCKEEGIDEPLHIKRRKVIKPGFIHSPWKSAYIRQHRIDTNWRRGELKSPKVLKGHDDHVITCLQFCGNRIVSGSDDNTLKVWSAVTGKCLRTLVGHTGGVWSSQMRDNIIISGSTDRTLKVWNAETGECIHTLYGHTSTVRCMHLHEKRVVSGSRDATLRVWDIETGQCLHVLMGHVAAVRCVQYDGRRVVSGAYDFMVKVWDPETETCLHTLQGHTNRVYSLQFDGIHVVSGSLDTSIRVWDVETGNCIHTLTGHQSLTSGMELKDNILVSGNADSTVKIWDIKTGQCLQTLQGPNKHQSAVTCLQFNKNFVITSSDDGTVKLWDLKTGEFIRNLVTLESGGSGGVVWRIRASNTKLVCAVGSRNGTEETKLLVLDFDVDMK

Skp2, sequence (Q13309 whole entry): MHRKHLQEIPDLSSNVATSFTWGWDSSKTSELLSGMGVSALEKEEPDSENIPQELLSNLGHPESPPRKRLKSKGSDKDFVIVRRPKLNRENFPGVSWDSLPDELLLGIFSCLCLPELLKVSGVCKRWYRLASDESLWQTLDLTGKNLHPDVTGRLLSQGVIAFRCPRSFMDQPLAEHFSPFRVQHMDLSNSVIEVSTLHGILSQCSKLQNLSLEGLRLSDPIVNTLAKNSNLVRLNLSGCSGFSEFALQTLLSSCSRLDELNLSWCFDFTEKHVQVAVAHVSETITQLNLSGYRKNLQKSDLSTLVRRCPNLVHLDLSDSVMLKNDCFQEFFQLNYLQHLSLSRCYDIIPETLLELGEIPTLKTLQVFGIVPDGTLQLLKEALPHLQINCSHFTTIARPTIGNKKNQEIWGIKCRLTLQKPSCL
T1 sequence (Q9Y297 175-605, chain 1 of 2): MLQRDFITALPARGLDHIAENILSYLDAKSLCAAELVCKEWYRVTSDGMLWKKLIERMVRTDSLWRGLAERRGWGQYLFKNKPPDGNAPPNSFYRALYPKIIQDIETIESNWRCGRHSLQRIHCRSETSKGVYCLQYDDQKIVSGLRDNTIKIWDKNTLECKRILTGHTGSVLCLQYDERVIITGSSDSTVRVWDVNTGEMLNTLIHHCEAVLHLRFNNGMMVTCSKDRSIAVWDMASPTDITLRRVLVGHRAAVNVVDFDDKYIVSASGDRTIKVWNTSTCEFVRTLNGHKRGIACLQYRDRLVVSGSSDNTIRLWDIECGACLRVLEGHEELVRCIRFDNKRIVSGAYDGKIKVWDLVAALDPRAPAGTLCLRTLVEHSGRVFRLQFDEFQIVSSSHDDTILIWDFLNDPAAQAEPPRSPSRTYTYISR
T1 sequence (P63208 whole entry, chain 2 of 2): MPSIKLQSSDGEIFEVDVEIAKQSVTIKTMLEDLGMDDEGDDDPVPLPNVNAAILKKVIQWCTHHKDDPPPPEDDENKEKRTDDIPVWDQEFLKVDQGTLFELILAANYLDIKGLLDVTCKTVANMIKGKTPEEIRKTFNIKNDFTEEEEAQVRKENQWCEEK

Binder | Ki [1] [nM] | % Inhibition Skp2 @ 10 µM (Skp2) [%] | % Inhibition Skp2 @ (100 µM) (Skp2) [%] | % Inhibition Fbw7 @ 10 µM (Fbw7) [%] | % Inhibition Fbw7 @ (100 µM) (Fbw7) [%]
{Benzenesulfonyl(4-OMe)}-[dD]EG[Phe(3-F)]WE[Ahx]K(4‑methoxybenzoyl)-NH2 (also called UBP066) [4-(MeO)PhSO2-dEGF(3F)WE-Ahx-K(NHCO-(4-(OMe)-Ph))-NH2] | 5.17 |  |  |  | 
{Benzenesulfonyl(4-OMe)}-[dD]EG[Phe(3-F)]WE[Ahx]K(2Naphthoyl)-NH2 (also called UBP055) [4-(MeO)PhSO2-dEGF(3F)WE-Ahx-K(NHCO-2-Naph)-NH2] | 1.85 |  |  |  | 
{Benzenesulfonyl(4-OMe)}-[dD]EG[Phe(3-F)]WE[Ahx]K(3,5‑dichlorobenzoyl)-NH2 (also called UBP062) [4-(MeO)PhSO2-dEGF(3F)WE-Ahx-K(NHCO-(3,5-(Cl)2-Ph))-NH2] | 6.23 |  |  |  | 
{Benzenesulfonyl(4-OMe)}-[dD]EG[Phe(3-F)]WE[Ahx]K(Hexanoyl)-NH2 (also called UBP063) [4-(MeO)PhSO2-dEGF(3F)WE-Ahx-K(NHCO-(CH2)4CH3)-NH2] | 5.37 |  |  |  | 
{Benzenesulfonyl(4-OMe)}-[dD]EG[Phe(3-F)]WE[Ahx]K-NH2 (not fully specified (residue 8); printed as 4-(MeO)PhSO2-dEGF(3F)WE-Ahx-K(NHCO-CH2CH2Ch(CH3)2)-NH2, also called UBP068) [4-(MeO)PhSO2-dEGF(3F)WE-Ahx-K(NHCO-CH2CH2Ch(CH3)2)-NH2] | 5.38 |  |  |  | 
Suc-EGY[1Nal]E-NH2 [Suc-EGY1NalE-NH2] |  | 0 | 6 | 1 | 5
{Benzenesulfonyl(4-OMe)}-[dD]EG[Phe(3-F)]WE[Ahx]K(4‑(trifluoromethyl)benzoyl)-NH2 (also called UBP064) [4-(MeO)PhSO2-dEGF(3F)WE-Ahx-K(NHCO-(4-(CF3)-Ph))-NH2] | 6.39 |  |  |  | 
{Benzenesulfonyl(4-OMe)}-[dD]EG[Phe(3-F)]WE[Ahx]K(Benzoyl(4-tBu))-NH2 (also called UBP054) [4-(MeO)PhSO2-dEGF(3F)WE-Ahx-K(NHCO-(4-(t-Bu-Ph))-NH2] | 1.94 |  |  |  | 
D[pS]GIFE-NH2 (N-terminus assumed; SMILES CC[C@H](C)[C@H](NC(=O)CNC(=O)[C@H](COP(=O)(O)O)NC(=O)[C@@H](N)CC(=O)O)C(=O)N[C@@H](Cc1ccccc1)C(=O)N[C@@H](CCC(=O)O)C(N)=O) [DpSGIFE-NH2] |  | 8 | 13 | 0 | 0
Suc-EG[Phe(2-F)][Phe(4-NO2)]E-NH2 (SMILES NC(=O)[C@H](CCC(=O)O)NC(=O)[C@H](Cc1ccc([N+](=O)[O-])cc1)NC(=O)[C@H](Cc1ccccc1F)NC(=O)CNC(=O)[C@H](CCC(=O)O)NC(=O)CCC(=O)O) [Suc-EGF(2F)F(4NO2)E-NH2] |  | 8 | 11 | 0 | 0
{4‑i‑Pr‑PhSO2}-[dD]EG[Phe(3-F)]WE-NH2 (also called UBP040) [4-i-Pr-PhSO2-dEGF(3F)WE-NH2] | 1.6 |  |  |  | 
Maleoyl-EG[Phe(3-F)][Phe(4-NO2)]E-NH2 (SMILES NC(=O)[C@H](CCC(=O)O)NC(=O)[C@H](Cc1ccc([N+](=O)[O-])cc1)NC(=O)[C@H](Cc1cccc(F)c1)NC(=O)CNC(=O)[C@H](CCC(=O)O)NC(=O)/C=C\C(=O)O) [Mal-EGF(3F)F(4NO2)E-NH2] |  | 0 | 14 | 0 | 18
Suc-EG[Phe(4-NO2)][1Nal]E-NH2 (SMILES NC(=O)[C@H](CCC(=O)O)NC(=O)[C@H](Cc1cccc2ccccc12)NC(=O)[C@H](Cc1ccc([N+](=O)[O-])cc1)NC(=O)CNC(=O)[C@H](CCC(=O)O)NC(=O)CCC(=O)O) [Suc-EGF(4NO2)1NalE-NH2] |  | 12 | 6 | 14 | 28
{Benzenesulfonyl(4-OMe)}-[dD]EG[Phe(3-F)]WE[Ahx]K(4‑n‑propylphenylsulfonyl)-NH2 (also called UBP074) [4-(MeO)PhSO2-dEGF(3F)WE-Ahx-K(NHSO2-(4-(n-Pr)-Ph)-NH2] | 28.6 |  |  |  | 
Suc-EG[Phe(2-F)][Tyr(Me)]E-NH2 (SMILES COc1ccc(C[C@H](NC(=O)[C@H](Cc2ccccc2F)NC(=O)CNC(=O)[C@H](CCC(=O)O)NC(=O)CCC(=O)O)C(=O)N[C@@H](CCC(=O)O)C(N)=O)cc1) [Suc-EGF(2F)Y(Me)E-NH2] |  | 0 | 4 | 0 | 4
{Benzenesulfonyl(4-OMe)}-[dD]EG[Phe(3-F)]WE[Ahx]K(Benzoyl(4-Br))-NH2 (also called UBP058) [4-(MeO)PhSO2-dEGF(3F)WE-Ahx-K(NHCO-(4-(Br)-Ph))-NH2] | 3.35 |  |  |  | 
{Benzenesulfonyl(4-OMe)}-[dD]EG[Phe(3-F)]WE[Ahx]K-NH2 (not fully specified (residue 8); printed as 4-(MeO)PhSO2-dEGF(3F)WE-Ahx-K(NHCO-Ph)-NH2, also called UBP065) [4-(MeO)PhSO2-dEGF(3F)WE-Ahx-K(NHCO-Ph)-NH2] | 5.94 |  |  |  | 

Binder | Ki [1] [nM] | % Inhibition Skp2 @ 10 µM (Skp2) [%] | % Inhibition Skp2 @ (100 µM) (Skp2) [%] | % Inhibition Fbw7 @ 10 µM (Fbw7) [%] | % Inhibition Fbw7 @ (100 µM) (Fbw7) [%]
{4‑Pr‑PhSO2}-[dD]EG[Phe(3-F)]WE-NH2 (also called UBP041) [4-Pr-PhSO2-dEGF(3F)WE-NH2] | 1.77 |  |  |  | 
Suc-EGY[Phe(4-NO2)]E-NH2 (SMILES NC(=O)[C@H](CCC(=O)O)NC(=O)[C@H](Cc1ccc([N+](=O)[O-])cc1)NC(=O)[C@H](Cc1ccc(O)cc1)NC(=O)CNC(=O)[C@H](CCC(=O)O)NC(=O)CCC(=O)O) [Suc-EGYF(4NO2)E-NH2] |  | 11 | 31 | 0 | 0
Suc-EG[Phe(3-F)][Phe(4-NO2)]E-NH2 (SMILES NC(=O)[C@H](CCC(=O)O)NC(=O)[C@H](Cc1ccc([N+](=O)[O-])cc1)NC(=O)[C@H](Cc1cccc(F)c1)NC(=O)CNC(=O)[C@H](CCC(=O)O)NC(=O)CCC(=O)O) [Suc-EGF(3F)F(4NO2)E-NH2] |  | 0 | 3 | 0 | 2
QGXXE (N-terminal Suc (succinyl) cap; position 3 F(3F); position 4 F(4NO2); C-terminal amide) [Suc-QGF(3F)F(4NO2)E-NH2] |  | 0 | 0 | 0 | 0
{Benzenesulfonyl(4-OMe)}-[dD]EG[Phe(3-F)]WE[Ahx]K(4‑(dimethylamino)benzoyl)-NH2 (also called UBP071) [4-(MeO)PhSO2 dEGF(3F)WE-Ahx-K(NHCO-(4-(Me2N)-Ph))-NH2] | 9.51 |  |  |  | 
{Benzenesulfonyl(4-OMe)}-[dD]EG[Phe(3-F)]WE[Ahx]K(1‑naphthyloxycarbonyl)-NH2 (also called UBP069) [4-(MeO)PhSO2-dEGF(3F)WE-Ahx-K(NHOCO-1-Naph)-NH2] | 11.6 |  |  |  | 
Suc-EG[Phe(4-F)][Phe(4-NO2)]E-NH2 (SMILES NC(=O)[C@H](CCC(=O)O)NC(=O)[C@H](Cc1ccc([N+](=O)[O-])cc1)NC(=O)[C@H](Cc1ccc(F)cc1)NC(=O)CNC(=O)[C@H](CCC(=O)O)NC(=O)CCC(=O)O) [Suc-EGF(4F)F(4NO2)E-NH2] |  | 0 | 0 | 0 | 0
{Benzenesulfonyl(4-OMe)}-[dD]EG[Phe(3-F)]WE[Ahx]K(4‑chlorobenzoyl)-NH2 (also called UBP060) [4-(MeO)PhSO2-dEGF(3F)WE-Ahx-K(NHCO-(4-(Cl)-Ph))-NH2] | 3.64 |  |  |  | 
{Benzenesulfonyl(4-OMe)}-[dD]EG[Phe(3-F)]WE[Ahx]K(Bz)-NH2 (also called UBP061) [4-(MeO)PhSO2-dEGF(3F)WE-Ahx-K(NHCOPh)-NH2] | 3.1 |  |  |  | 
{Benzenesulfonyl(4-OMe)}-[dD]EG[Phe(3-F)]WE[Ahx]K(4‑bromophenylsulfonyl)-NH2 (also called UBP059) [4-(MeO)PhSO2-dEGF(3F)WE-Ahx-K(NHSO2-(4-(Br)-Ph))-NH2] | 2.96 |  |  |  | 
{Benzenesulfonyl(4-OMe)}-[dD]EG[Phe(3-F)]WE[Ahx]K(phenylsulfonyl)-NH2 (also called UBP073) [4-(MeO)PhSO2-dEGF(3F)WE-Ahx-K(NHSO2Ph)-NH2] | 13 |  |  |  | 
{Benzenesulfonyl(4-OMe)}-[dD]EG[Phe(3-F)]WE[Ahx]K(Benzoyl(4-Me))-NH2 (also called UBP057) [4-(MeO)PhSO2-dEGF(3F)WE-Ahx-K(NHCO-(4-(ME)-Ph))-NH2] | 2.88 |  |  |  | 
{Benzenesulfonyl(4-OMe)}-[dD]EG[Phe(3-F)]WE[Ahx]K(2,4,6‑trimethylbenzoyl)-NH2 (also called UBP056) [4-(MeO)PhSO2-dEGF(3F)WE-Ahx-K(NHCO-(2,4,6-(Me)3-Ph))-NH2] | 3.39 |  |  |  | 
{Benzenesulfonyl(4-OMe)}-[dD]EG[Phe(3-F)]WE[Ahx]K(phenylcarbamoyl)-NH2 [4-(MeO)PhSO2-dEGF(3F)WE-Ahx-K(NHCONH-Ph)-NH2] | 5.61 |  |  |  | 
{Benzenesulfonyl(4-OMe)}-[dD]EG[Phe(3-F)]WE-NH2 (SMILES COc1ccc(S(=O)(=O)N[C@H](CC(=O)O)C(=O)N[C@@H](CCC(=O)O)C(=O)NCC(=O)N[C@@H](Cc2cccc(F)c2)C(=O)N[C@@H](Cc2c[nH]c3ccccc23)C(=O)N[C@@H](CCC(=O)O)C(N)=O)cc1, also called UBP022) [4-(MeO)PhSO2-dEGF(3F)WE-NH2] | 5.78 |  |  |  | 
{Benzenesulfonyl(4-OMe)}-[dD]EG[Phe(3-F)]WE[Ahx]K(4‑isopropylphenylsulfonyl)-NH2 (also called UBP072) [4-(MeO)PhSO2-dEGF(3F)WE-Ahx-K(NHSO2-(4-i-Pr)-Ph))-NH2] | 12.9 |  |  |  | 
Suc-EG[Phe(3-F)][1Nal]E-NH2 [Suc-EGF(3F)1NalE-NH2] |  | 0 | 12 | 3 | 0
